The values that follow come from US20130129739A1.

The target in this assay is human prolactin receptor (PRLR) on cells (human) (UniProt P16471). Nature of the assay: cell-based or functional assay.
Chain of human prolactin receptor (PRLR) on cells (human) (P16471 25-622): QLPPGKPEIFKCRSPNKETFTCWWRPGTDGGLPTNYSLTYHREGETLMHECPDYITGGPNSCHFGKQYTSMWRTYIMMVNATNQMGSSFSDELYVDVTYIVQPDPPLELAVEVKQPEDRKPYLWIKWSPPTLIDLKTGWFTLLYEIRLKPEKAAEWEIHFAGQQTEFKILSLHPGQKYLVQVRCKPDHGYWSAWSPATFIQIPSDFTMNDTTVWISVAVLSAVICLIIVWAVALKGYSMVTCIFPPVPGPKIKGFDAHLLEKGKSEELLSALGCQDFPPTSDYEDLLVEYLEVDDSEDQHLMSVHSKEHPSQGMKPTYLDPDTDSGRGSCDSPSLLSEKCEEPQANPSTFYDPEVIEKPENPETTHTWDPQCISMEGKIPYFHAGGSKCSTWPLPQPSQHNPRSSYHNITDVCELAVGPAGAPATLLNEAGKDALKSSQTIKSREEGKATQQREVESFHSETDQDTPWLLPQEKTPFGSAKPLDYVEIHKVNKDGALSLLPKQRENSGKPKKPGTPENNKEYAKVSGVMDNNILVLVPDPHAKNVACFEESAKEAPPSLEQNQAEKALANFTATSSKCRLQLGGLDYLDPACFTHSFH

Consider Negative control (Table 8), for which the Inhibition of phosphorylation of ERK1/2 in % at 7.5 µg/ml (ELISA, prolactin-treated T47D lysates) turned out to be 9%; the Inhibition of phosphorylation of PRLR in % at 7.5 µg/ml (ELISA, prolactin-treated T47D lysates) came out at 2%; the Inhibition of phosphorylation of STAT5 in % at 7.5 µg/ml (ELISA, prolactin-treated T47D lysates) was found to be 0%.
